According to patent US20220211857A1, “POLYPEPTIDE DERIVATIVE AND PREPARATION METHOD THEREOF” (NINGBO KUNPENG BIOTECH CO., LTD., priority 2019, published 2022):
Where a SMILES comes first, the peptide text is derived from it. The star is where a group is joined. X3 = O=C(O)CCCCCCCCCCCCCCC(=O)NC(CCC(=O)NCCOCCOCCOCCOCCn1cc(CCOC(=O)*)nn1)C(=O)O; X5 = O=C(O)CCCCCCCCCCCCCCC(=O)NC(CCC(=O)NCCOCCOCCOCCn1cc(CCOC(=O)*)nn1)C(=O)O; X2 = O=C(O)CCCCCCCCCCCCCCC(=O)NC(CCC(=O)NCCn1cc(CCOC(=O)*)nn1)C(=O)O

Columns and labels:
[1] = Pharmacokinetics studies of PTH-1 derivatives in rats (single subcutaneous injection, LC-MS/MS, NCA); type: in vivo; settings: rat, experiment of Example 10 repeated in the same way
Procedure: PTH-1 and L6-GFA16-PTH-1 were injected subcutaneously with a single administration of 8.6 μg/kg, respectively. Animals in each group were collected blood at 0 min, 5 min, 15 min, 30 min, 1 h, 2 h, and 4 h after administration. […] Exposure time of drugs in vivo was prolonged and exposure doses were increased.

[2] = Pharmacokinetics studies of GLP-1 derivatives in rats (single subcutaneous injection, LC-MS/MS, NCA); settings: rat; for half-lives (in words): experiment of Example 8 repeated in the same way
Procedure: The experiment comprised a reference substance group and a test substance group. GLP-1 and L6-GFA16-GLP-1 were injected subcutaneously with a single administration of 0.5 mg/kg, respectively. Animals in each group were collected blood at 15 min, 30 min, 1 h, 2 h, 3 h, 5 h, 7 h, 12 h, and 24 h after administration. LC-MS/MS analysis method was used to detect contents of different GLP-1 analogues.

Compound | half-lives (in words) [1] | half-lives (in words) [2] | further results
CC[C@H](C)[C@H](NC(=O)[C@H](CCC(=O)O)NC(=O)[C@H](CO)NC(=O)[C@@H](NC(=O)[C@@H](N)CO)C(C)C)C(=O)N[C@@H](CCC(N)=O)C(=O)N[C@@H](CC(C)C)C(=O)N[C@@H](CCSC)C(=O)N[C@@H](Cc1c[nH]cn1)C(=O)N[C@@H](CC(N)=O)C(=O)N[C@@H](CC(C)C)C(=O)NCC(=O)N[C@@H](CCCNC(=N)N)C(=O)N[C@@H](Cc1c[nH]cn1)C(=O)N[C@@H](CC(C)C)C(=O)N[C@@H](CC(N)=O)C(=O)N[C@@H](CO)C(=O)N[C@@H](CCSC)C(=O)N[C@@H](CCC(=O)O)C(=O)N[C@@H](CCCNC(=N)N)C(=O)N[C@H](C(=O)N[C@@H](CCC(=O)O)C(=O)N[C@@H](Cc1c[nH]c2ccccc12)C(=O)N[C@@H](CC(C)C)C(=O)N[C@@H](CCCNC(=N)N)C(=O)N[C@@H](CCCCNC(=O)OCCc1cn(CCNC(=O)CCC(NC(=O)CCCCCCCCCCCCCCC(=O)O)C(=O)O)nn1)C(=O)N[C@@H](CCCNC(=N)N)C(=O)N[C@@H](CC(C)C)C(=O)N[C@@H](CCC(N)=O)C(=O)N[C@@H](CC(=O)O)C(=O)N[C@H](C(=O)N[C@@H](Cc1c[nH]cn1)C(=O)N[C@@H](CC(N)=O)C(=O)N[C@@H](Cc1ccccc1)C(=O)O)C(C)C)C(C)C (stereo partly drawn) [L0-GFA16-PTH] (H-SVSEIQLMHNLGRHLNSMERVEWLRK(X2)RLQDVHNF-OH) | significantly prolonged |  | 
CC[C@H](C)[C@H](NC(=O)[C@H](CCC(=O)O)NC(=O)[C@H](CO)NC(=O)[C@@H](NC(=O)[C@@H](N)CO)C(C)C)C(=O)N[C@@H](CCC(N)=O)C(=O)N[C@@H](CC(C)C)C(=O)N[C@@H](CCSC)C(=O)N[C@@H](Cc1c[nH]cn1)C(=O)N[C@@H](CC(N)=O)C(=O)N[C@@H](CC(C)C)C(=O)NCC(=O)N[C@@H](CCCNC(=N)N)C(=O)N[C@@H](Cc1c[nH]cn1)C(=O)N[C@@H](CC(C)C)C(=O)N[C@@H](CC(N)=O)C(=O)N[C@@H](CO)C(=O)N[C@@H](CCSC)C(=O)N[C@@H](CCC(=O)O)C(=O)N[C@@H](CCCNC(=N)N)C(=O)N[C@H](C(=O)N[C@@H](CCC(=O)O)C(=O)N[C@@H](Cc1c[nH]c2ccccc12)C(=O)N[C@@H](CC(C)C)C(=O)N[C@@H](CCCNC(=N)N)C(=O)N[C@@H](CCCCNC(=O)OCCc1cn(CCOCCOCCOCCOCCNC(=O)CCC(NC(=O)CCCCCCCCCCCCCCC(=O)O)C(=O)O)nn1)C(=O)N[C@@H](CCCNC(=N)N)C(=O)N[C@@H](CC(C)C)C(=O)N[C@@H](CCC(N)=O)C(=O)N[C@@H](CC(=O)O)C(=O)N[C@H](C(=O)N[C@@H](Cc1c[nH]cn1)C(=O)N[C@@H](CC(N)=O)C(=O)N[C@@H](Cc1ccccc1)C(=O)O)C(C)C)C(C)C (stereo partly drawn) [L4-GFA16-PTH] (H-SVSEIQLMHNLGRHLNSMERVEWLRK(X3)RLQDVHNF-OH) | significantly prolonged |  | 
CC[C@H](C)[C@H](NC(=O)[C@H](CCC(=O)O)NC(=O)[C@H](CO)NC(=O)[C@@H](NC(=O)[C@@H](N)CO)C(C)C)C(=O)N[C@@H](CCC(N)=O)C(=O)N[C@@H](CC(C)C)C(=O)N[C@@H](CCSC)C(=O)N[C@@H](Cc1c[nH]cn1)C(=O)N[C@@H](CC(N)=O)C(=O)N[C@@H](CC(C)C)C(=O)NCC(=O)N[C@@H](CCCNC(=N)N)C(=O)N[C@@H](Cc1c[nH]cn1)C(=O)N[C@@H](CC(C)C)C(=O)N[C@@H](CC(N)=O)C(=O)N[C@@H](CO)C(=O)N[C@@H](CCSC)C(=O)N[C@@H](CCC(=O)O)C(=O)N[C@@H](CCCNC(=N)N)C(=O)N[C@H](C(=O)N[C@@H](CCC(=O)O)C(=O)N[C@@H](Cc1c[nH]c2ccccc12)C(=O)N[C@@H](CC(C)C)C(=O)N[C@@H](CCCNC(=N)N)C(=O)N[C@@H](CCCCNC(=O)OCCc1cn(CCOCCOCCOCCNC(=O)CCC(NC(=O)CCCCCCCCCCCCCCC(=O)O)C(=O)O)nn1)C(=O)N[C@@H](CCCNC(=N)N)C(=O)N[C@@H](CC(C)C)C(=O)N[C@@H](CCC(N)=O)C(=O)N[C@@H](CC(=O)O)C(=O)N[C@H](C(=O)N[C@@H](Cc1c[nH]cn1)C(=O)N[C@@H](CC(N)=O)C(=O)N[C@@H](Cc1ccccc1)C(=O)O)C(C)C)C(C)C (stereo partly drawn) [L3-GFA16-PTH] (H-SVSEIQLMHNLGRHLNSMERVEWLRK(X5)RLQDVHNF-OH) | significantly prolonged |  | 
CC[C@H](C)[C@H](NC(=O)[C@H](Cc1ccccc1)NC(=O)[C@H](CCC(=O)O)NC(=O)[C@H](CCCCNC(=O)OCCc1cn(CCNC(=O)CCC(NC(=O)CCCCCCCCCCCCCCC(=O)O)C(=O)O)nn1)NC(=O)[C@H](C)NC(=O)[C@H](C)NC(=O)[C@H](CCC(N)=O)NC(=O)CNC(=O)[C@H](CCC(=O)O)NC(=O)[C@H](CC(C)C)NC(=O)[C@H](Cc1ccc(O)cc1)NC(=O)[C@H](CO)NC(=O)[C@H](CO)NC(=O)[C@@H](NC(=O)[C@H](CC(=O)O)NC(=O)[C@H](CO)NC(=O)[C@@H](NC(=O)[C@H](Cc1ccccc1)NC(=O)[C@@H](NC(=O)CNC(=O)[C@H](CCC(=O)O)NC(=O)[C@H](C)NC(=O)[C@@H](N)Cc1c[nH]cn1)[C@@H](C)O)[C@@H](C)O)C(C)C)C(=O)N[C@@H](C)C(=O)N[C@@H](Cc1c[nH]c2ccccc12)C(=O)N[C@@H](CC(C)C)C(=O)N[C@H](C(=O)N[C@@H](CCCCN)C(=O)NCC(=O)N[C@@H](CCCNC(=N)N)C(=O)NCC(=O)O)C(C)C (stereo partly drawn) [L0-GFA16-GLP-1] |  | significantly prolonged | 
CC[C@H](C)[C@H](NC(=O)[C@H](Cc1ccccc1)NC(=O)[C@H](CCC(=O)O)NC(=O)[C@H](CCCCNC(=O)OCCc1cn(CCOCCOCCNC(=O)CCC(NC(=O)CCCCCCCCCCCCCCC(=O)O)C(=O)O)nn1)NC(=O)[C@H](C)NC(=O)[C@H](C)NC(=O)[C@H](CCC(N)=O)NC(=O)CNC(=O)[C@H](CCC(=O)O)NC(=O)[C@H](CC(C)C)NC(=O)[C@H](Cc1ccc(O)cc1)NC(=O)[C@H](CO)NC(=O)[C@H](CO)NC(=O)[C@@H](NC(=O)[C@H](CC(=O)O)NC(=O)[C@H](CO)NC(=O)[C@@H](NC(=O)[C@H](Cc1ccccc1)NC(=O)[C@@H](NC(=O)CNC(=O)[C@H](CCC(=O)O)NC(=O)[C@H](C)NC(=O)[C@@H](N)Cc1c[nH]cn1)[C@@H](C)O)[C@@H](C)O)C(C)C)C(=O)N[C@@H](C)C(=O)N[C@@H](Cc1c[nH]c2ccccc12)C(=O)N[C@@H](CC(C)C)C(=O)N[C@H](C(=O)N[C@@H](CCCCN)C(=O)NCC(=O)N[C@@H](CCCNC(=N)N)C(=O)NCC(=O)O)C(C)C (stereo partly drawn) [L2-GFA16-GLP-1] |  | significantly prolonged | 
CC[C@H](C)[C@H](NC(=O)[C@H](Cc1ccccc1)NC(=O)[C@H](CCC(=O)O)NC(=O)[C@H](CCCCNC(=O)OCCc1cn(CCOCCOCCOCCOCCNC(=O)CCC(NC(=O)CCCCCCCCCCCCCCC(=O)O)C(=O)O)nn1)NC(=O)[C@H](C)NC(=O)[C@H](C)NC(=O)[C@H](CCC(N)=O)NC(=O)CNC(=O)[C@H](CCC(=O)O)NC(=O)[C@H](CC(C)C)NC(=O)[C@H](Cc1ccc(O)cc1)NC(=O)[C@H](CO)NC(=O)[C@H](CO)NC(=O)[C@@H](NC(=O)[C@H](CC(=O)O)NC(=O)[C@H](CO)NC(=O)[C@@H](NC(=O)[C@H](Cc1ccccc1)NC(=O)[C@@H](NC(=O)CNC(=O)[C@H](CCC(=O)O)NC(=O)[C@H](C)NC(=O)[C@@H](N)Cc1c[nH]cn1)[C@@H](C)O)[C@@H](C)O)C(C)C)C(=O)N[C@@H](C)C(=O)N[C@@H](Cc1c[nH]c2ccccc12)C(=O)N[C@@H](CC(C)C)C(=O)N[C@H](C(=O)N[C@@H](CCCCN)C(=O)NCC(=O)N[C@@H](CCCNC(=N)N)C(=O)NCC(=O)O)C(C)C (stereo partly drawn) [L4-GFA16-GLP-1] |  | significantly prolonged | 
CC[C@H](C)[C@H](NC(=O)[C@H](Cc1ccccc1)NC(=O)[C@H](CCC(=O)O)NC(=O)[C@H](CCCCNC(=O)OCCc1cn(CCOCCOCCOCCNC(=O)CCC(NC(=O)CCCCCCCCCCCCCCC(=O)O)C(=O)O)nn1)NC(=O)[C@H](C)NC(=O)[C@H](C)NC(=O)[C@H](CCC(N)=O)NC(=O)CNC(=O)[C@H](CCC(=O)O)NC(=O)[C@H](CC(C)C)NC(=O)[C@H](Cc1ccc(O)cc1)NC(=O)[C@H](CO)NC(=O)[C@H](CO)NC(=O)[C@@H](NC(=O)[C@H](CC(=O)O)NC(=O)[C@H](CO)NC(=O)[C@@H](NC(=O)[C@H](Cc1ccccc1)NC(=O)[C@@H](NC(=O)CNC(=O)[C@H](CCC(=O)O)NC(=O)[C@H](C)NC(=O)[C@@H](N)Cc1c[nH]cn1)[C@@H](C)O)[C@@H](C)O)C(C)C)C(=O)N[C@@H](C)C(=O)N[C@@H](Cc1c[nH]c2ccccc12)C(=O)N[C@@H](CC(C)C)C(=O)N[C@H](C(=O)N[C@@H](CCCCN)C(=O)NCC(=O)N[C@@H](CCCNC(=N)N)C(=O)NCC(=O)O)C(C)C (stereo partly drawn) [L3-GFA16-GLP-1] |  | significantly prolonged | 
CC[C@H](C)[C@H](NC(=O)[C@H](Cc1ccccc1)NC(=O)[C@H](CCC(=O)O)NC(=O)[C@H](CCCCNC(=O)OCCc1cn(CCNC(=O)COCCOCCNC(=O)COCCOCCNC(=O)CCC(NC(=O)CCCCCCCCCCCCCCC(=O)O)C(=O)O)nn1)NC(=O)[C@H](C)NC(=O)[C@H](C)NC(=O)[C@H](CCC(N)=O)NC(=O)CNC(=O)[C@H](CCC(=O)O)NC(=O)[C@H](CC(C)C)NC(=O)[C@H](Cc1ccc(O)cc1)NC(=O)[C@H](CO)NC(=O)[C@H](CO)NC(=O)[C@@H](NC(=O)[C@H](CC(=O)O)NC(=O)[C@H](CO)NC(=O)[C@@H](NC(=O)[C@H](Cc1ccccc1)NC(=O)[C@@H](NC(=O)CNC(=O)[C@H](CCC(=O)O)NC(=O)[C@H](C)NC(=O)[C@@H](N)Cc1c[nH]cn1)[C@@H](C)O)[C@@H](C)O)C(C)C)C(=O)N[C@@H](C)C(=O)N[C@@H](Cc1c[nH]c2ccccc12)C(=O)N[C@@H](CC(C)C)C(=O)N[C@H](C(=O)N[C@@H](CCCCN)C(=O)NCC(=O)N[C@@H](CCCNC(=N)N)C(=O)NCC(=O)O)C(C)C (stereo partly drawn) [L6-GFA16-GLP-1] |  |  | Exposure time in vivo ([2]; s.c. 0.5 mg/kg, versus GLP-1): prolonged; exposure doses ([2]; s.c. 0.5 mg/kg, versus GLP-1): increased significantly
